Reference: paper PMC2844434

Molecular target: Human pro-insulin fused to the Gal4 DNA binding domain (human)
Sequence (P01308 25-110): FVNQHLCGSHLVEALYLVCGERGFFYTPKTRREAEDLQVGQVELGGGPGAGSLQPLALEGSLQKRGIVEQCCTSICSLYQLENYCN

Substance | glucose level of adult S. japonicum worms cultured 24 h with 20% anti-LD1 + anti-LD2 mouse antisera (medium with foetal bovine serum as source of insulin; endogenous receptors), against normal serum [% reduction]
Ligand domain of Schistosoma japonicum insulin receptor 1 (SjIR-1), D59 to E411 (domain or fragment) | 65
Ligand domain of Schistosoma japonicum insulin receptor 2 (SjIR-2), Q7 to K399 (domain or fragment) | 65
